In article PMC12768131, “Common cold embecovirus imprinting primes broadly neutralizing antibody responses to SARS-CoV-2 S2” (The Journal of experimental medicine, 2025):

Molecular target: T1, full-length SARS-CoV-2 spiketrimer (HP-GSAS-Mut7) (SARS-CoV-2, ancestral (Wuhan-Hu-1), stabilised)
T1 construct: also called full-length spike trimer; full-length spike
Assay: BLI
Details: both partners purified

B1: R125–61 Fab (Fab, V domains shown)
VH: QVQLQESGPGLVKPSETLSLICTVSGGSITRDFWSWVRQPPGKGLEWIGYGYYRGSTNYNPSLESRVTISVDTSKNQFSLKLTSVTAADTAVYYCARETAHNWIDTWGQGILVTVSS
VL: DIVMTQSPESLALSLGERATINCKSSQTVSFTSNNKNYLAWYQQKPRQPPKLLFYWASTRHSGVPDRFSGSGSGTDFTLTINSLQAEDVAVYFCHQYFSTPWTFGQGTKVEI
Kd: 4.7 nM
